B1: Heat shock 70 kDa protein 4 (Homo sapiens), P34932 (parent)
chain: MSVVGIDLGFQSCYVAVARAGGIETIANEYSDRCTPACISFGPKNRSIGAAAKSQVISNAKNTVQGFKRFHGRAFSDPFVEAEKSNLAYDIVQLPTGLTGIKVTYMEEERNFTTEQVTAMLLSKLKETAESVLKKPVVDCVVSVPCFYTDAERRSVMDATQIAGLNCLRLMNETTAVALAYGIYKQDLPALEEKPRNVVFVDMGHSAYQVSVCAFNRGKLKVLATAFDTTLGGRKFDEVLVNHFCEEFGKKYKLDIKSKIRALLRLSQECEKLKKLMSANASDLPLSIECFMNDVDVSGTMNRGKFLEMCNDLLARVEPPLRSVLEQTKLKKEDIYAVEIVGGATRIPAVKEKISKFFGKELSTTLNADEAVTRGCALQCAILSPAFKVREFSITDVVPYPISLRWNSPAEEGSSDCEVFSKNHAAPFSKVLTFYRKEPFTLEAYYSSPQDLPYPDPAIAQFSVQKVTPQSDGSSSKVKVKVRVNVHGIFSVSSASLVEVHKSEENEEPMETDQNAKEEEKMQVDQEEPHVEEQQQQTPAENKAESEEMETSQAGSKDKKMDQPPQAKKAKVKTSTVDLPIENQLLWQIDREMLNLYIENEGKMIMQDKLEKERNDAKNAVEEYVYEMRDKLSGEYEKFVSEDDRNSFTLKLEDTENWLYEDGEDQPKQVYVDKLAELKNLGQPIKIRFQESEERPKLFEELGKQIQQYMKIISSFKNKEDQYDHLDAADMTKVEKSTNEAMEWMNNKLNLQNKQSLTMDPVVKSKEIEAKIKELTSTCSPIISKPKPKVEPPKEEQKNAEQNGPVDGQGDNPGPQAAEQGTDTAVPSDSDKKLPEMDID

Variants of: B1
Conditions: with hsp7c_human HSPA8, P11142
hsp7c_human HSPA8, P11142, sequence (P11142 whole entry, looked up): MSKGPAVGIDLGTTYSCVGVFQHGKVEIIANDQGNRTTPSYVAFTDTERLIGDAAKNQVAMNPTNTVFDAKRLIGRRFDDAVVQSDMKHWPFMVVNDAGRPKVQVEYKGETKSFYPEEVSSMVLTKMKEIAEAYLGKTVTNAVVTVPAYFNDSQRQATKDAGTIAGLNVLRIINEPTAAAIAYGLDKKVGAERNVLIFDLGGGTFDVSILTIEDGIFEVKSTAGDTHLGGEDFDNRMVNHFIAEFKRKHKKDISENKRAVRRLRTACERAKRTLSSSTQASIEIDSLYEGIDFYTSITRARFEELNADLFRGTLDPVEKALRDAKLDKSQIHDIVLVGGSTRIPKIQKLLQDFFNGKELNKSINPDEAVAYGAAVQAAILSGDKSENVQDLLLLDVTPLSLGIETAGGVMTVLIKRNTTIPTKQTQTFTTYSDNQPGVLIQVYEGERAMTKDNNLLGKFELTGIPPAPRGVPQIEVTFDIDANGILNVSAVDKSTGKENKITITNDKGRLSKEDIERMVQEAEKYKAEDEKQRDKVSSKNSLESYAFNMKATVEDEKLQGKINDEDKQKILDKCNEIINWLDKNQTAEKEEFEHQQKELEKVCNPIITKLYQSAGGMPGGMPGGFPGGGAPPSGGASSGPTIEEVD

Variant | effect of a mutation on the interaction
E622A | decreasing interaction
N619Y | decreasing interaction

— IntAct's records for PubMed 22990239
